As usually defined, the IC50 is the concentration at which inhibition is half-maximal. The term Ki denotes the equilibrium dissociation constant of an inhibitor or competing ligand from its target. By EC50 is commonly meant the concentration that produces a half-maximal response. Low readings indicate a more potent agent, high ones a less potent agent.

“Also recorded” adds a separate entry of the source.

For experiment [1], the target named is T1, CXCR4 on Caki-CXCR4 cells (Homo sapiens, UniProt P61073).
T1 construct: expressed in transfected cells; host or cells: Caki-CXCR4
T1 sequence (P61073 whole entry): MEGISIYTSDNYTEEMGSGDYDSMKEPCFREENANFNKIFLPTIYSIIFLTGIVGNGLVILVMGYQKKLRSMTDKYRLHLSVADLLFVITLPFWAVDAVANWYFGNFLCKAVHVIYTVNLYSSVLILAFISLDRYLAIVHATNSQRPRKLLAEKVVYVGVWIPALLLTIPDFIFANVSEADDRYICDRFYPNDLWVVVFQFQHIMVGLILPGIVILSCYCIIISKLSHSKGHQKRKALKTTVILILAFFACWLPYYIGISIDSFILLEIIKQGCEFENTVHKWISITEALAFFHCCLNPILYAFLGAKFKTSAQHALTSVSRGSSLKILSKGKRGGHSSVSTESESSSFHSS
Briefly: Biotinylated SDF-1 displacement on Caki-CXCR4 cells (flow cytometry). In kind it is binding. The following applies: 30 nM biotinylated SDF-1; read-out: Ligand competition Biotin-SDF-1 IC50. On the procedure:
CXCR4 Nanobodies were analysed for their ability to compete with the ligand CXCL12 (or SDF-1a) for receptor binding, by displacement of biotinylated SDF-1 on Caki-CXCR4 cells in flow cytometry. To this end serial dilutions of Nanobodies were incubated with 30 nM of biotinylated SDF-1 (R&D Systems Fluorokine kit) on cells, after which ligand binding was visualised using extravidin-PE. The biotin-SDF-1 competitor concentration used in this assay was below the EC50 value obtained in dose-titration, where IC50 values should reflect the Ki.
In general terms: Flow cytometry measures light scatter and fluorescence of single cells or particles in a stream.

In experiment [2] the target is T2, CXCR4 (membrane extracts of Hek-CXCR4 cells) (Homo sapiens, UniProt P61073).
T2 construct: expressed in transfected cells; host or cells: Hek293 (membrane extracts)
T2 sequence (P61073 whole entry): as above
Briefly: [125I]-CXCL12 radio-ligand displacement on membrane extracts of Hek-CXCR4 cells. Format: binding. On the procedure: CXCR4 Nanobodies were analysed in radio-ligand displacement assay on membrane extracts of Hek-CXCR4 cells. The advantage of using the radiolabelled ligand is the increased sensitivity, and the low competitor concentration ensures the determination of Ki values (i.e. the real affinity constant) instead of measuring the IC50 value. This makes it possible to accurately determine the potencies of low affine Nanobodies, even though they may not reach full displacement.
Non-specific binding was determined in presence of 100 nM cold SDF-1. As controls full blocking CXCR4 Nanobodies 238D4 and 281A6 were included. The assay was performed three times, and average percentages of SDF-1 inhibition were calculated.

Experiment [3] addresses T3, CXCR4 on Jurkat E6-1 cells (Homo sapiens, UniProt P61073).
T3 construct: endogenous in cells; host or cells: Jurkat E6-1
Briefly: CXCL12/SDF-1a induced chemotaxis of Jurkat E6-1 cells. Format: cell-based. As to conditions: monovalent CXCR4 Nanobodies, Table 4; read-out: Chemotaxis Jurkat IC50. On the procedure: To verify if bispecific CXCR4-IL3Ra polypeptides show increased affinity and potency on cells expressing both receptors, a CXCR4-dependent functional assay was carried out. To this end SDF-1a dependent chemotaxis on Jurkat E6-1 (CXCR4+/IL3Ra−), and MOLM-13 cells (CXCR4+/IL3Ra+) was performed for direct comparison of cells expressing both or only one receptor. Since the functional blockade is only mediated via CXCR4, avidity by the simultaneous binding of the anti-IL3Ra Nanobody® is expected to translate into increased potency in inhibition of chemotaxis.
Bispecific polypeptides were analyzed for inhibition of CXCL12-induced chemotaxis on cells endogenously expressing CXCR4. As chemoattractant a concentration of 750 pM SDF-1a was used on 100,000 cells/well for the Jurkat cell line, and 500,000 cells/well for the MOLM-13 cell line. On each plate the corresponding monovalent CXCR4 Nanobody was included as reference, allowing to calculate the fold increase of the bispecific within each plate. As additional control 1:1 mixtures of monovalent Nanobodies were included. In Table 9 the respective IC50 values are shown (average of n=3 experiments).
To verify if bispecific CXCR4-IL-3Ra polypeptides show increased affinity and potency on cells expressing both receptors, a CXCR4-dependent functional assay was done. Since MOLM-13 cells express CD4 in conjunction with CXCR4 and CD123, the same experimental set-up was used as described for the CXCR4-CD123 bispecific Nanobodies (see: Example 1.5.5).
Dose-dependent inhibition of CXCL12-induced chemotaxis by the panel of bispecific CD4-CXCR4 Nanobodies was determined on Jurkat (CXCR4+/CD4 low), and Molm-13 cells (CXCR4++/CD4++). As reference anti-CXCR4 antibody 12G5 was included on each plate. […] Remarkably, bispecific constructs in the inverse orientation were able to block CXCR4 function, despite their reduced affinity for CXCR4 due to the unfavourable position, although the blockade was partial. The much larger potency increases observed with Nanobodies targeting the CD4 and CXCR4 combination is most likely related to the higher relative expression levels of CD4 compared to CD123 on the Molm-13 cells.

Experiment [4] addresses T1, CXCR4 on Caki-CXCR4 cells. Nature of the experiment: Binding of CXCR4 Nanobodies to Caki-CXCR4 cells.
Experiment [5] deals with EGFR (Homo sapiens, UniProt P00533). As to conditions: read-out: affinity to EGFR; cited from earlier work.
The target of experiment [6] is Her3 (Homo sapiens, UniProt P21860). As to conditions: read-out: affinity to Her3; cited from earlier work.
Experiment [7] concerns the target T4, recombinant human CD4 / HIV1 gp120 interaction (Homo sapiens, UniProt P01730).
T4 construct: purchased Invitrogen
Nature of the experiment: gp120 - CD4 competition ELISA. Format: binding. The following applies: 500 nM Nanobody. On the procedure:
Therefore a panel of CD4 Nanobodies was analysed for the capacity to block the interaction with the viral gp120 protein. Briefly, CD4 Nanobodies were analysed for the ability to compete with gp120 protein binding to recombinant CD4 in ELISA. Briefly, plates were coated with 20 ug/mL sheep anti-gp120 antibodies. lug/mL of HIV1 gp120 protein was captured for 1 hr at room temperature. Biotinylated recombinant human CD4 (Invitrogen) at 0.5 μg/mL was pre-incubated with 500 nM anti-CD4 Nanobodies, or control antibodies mouse anti-CD4 mAb B-A1 and F5 (Diaclone) and rabbit anti-CD4 pAb (ImmunoDiagnostic Inc) for 1hr, after which mixture was transferred to the coated plates and incubated for 1 hr. Detection of bound CD4 was done with Extravidin-peroxidase conjugate. […] Characteristics of Nanobody CD4 are found in Table 2.1.

Experiment [8] relates to cytotoxic CD8+ T cells. Nature of the experiment: Binding to isolated CD8+ T cells (FACS). On the set-up: species or system human. The following applies: Nanobodies at 250 nM. Here is the method:
The pool of activated T cells comprises both CD4+ T cells and CD8+ T cells. To confirm the specificity of the anti-CD4 Nanobody and to exclude binding to CD4-negative cells, binding was assessed to cytotoxic CD8+ T cells isolated from human PBMCs using the CD8+ T Cell Isolation Kit (Miltenyi Biotech, 130-096-495), resulting in 94% purity of CD8+ cells. Binding specificity experiments were carried out using Nanobodies at 250 nM. […] Similar data were obtained for the IL12Rβ2 and IL23R Nanobodies.

Experiment [9] deals with CD8+/CD4− gated and CD4+ gated T cells. Nature of the experiment: Multi-colour FACS on TH1 activated T cells gated for CD8 or CD4. Format: binding, human. As to conditions: donor D838; anti-flag-APC detection. On the procedure: To elucidate if CD4-IL12R bispecific polypeptides preferentially bind to the CD4+/IL12R+ TH1 cell subset within the pool of T cells, Nanobody binding was analysed to a pool of activated T cells gated for either CD8 (detected by Anti-hu CD8 PE-Cy7 conjugated monoclonal antibody (BD 557746) or CD4 (detected by Anti-hu CD4 alexa Fluor 488-conjugated polyclonal antibody (R&D FAB8165G) in a multi-colour FACS experiment. Nanobody binding to the CD8+/CD4− gated cells and to CD4+ gated cells was determined using anti-flag-APC (Prozyme PJ255) detection. In this experiment TH1 activated T cells from the same donor (D838) as shown in FIG. 3.6 were used.

T3 sequence (P61073 whole entry): as above

B1: 238D4: full blocking control CXCR4 Nanobody (protein)
VHH: EVQLMESGGGLVQAGGSLRLSCAASGRTFNNYAMGWFRRAPGKEREFVAAITRSGVRSGVSAIYGDSVKDRFTISRDNAKNTLYLQMNSLKPEDTAVYTCAASAIGSGALRRFEYDYSGQGTQVTVSS
B1: the IC50 in experiment [1] is 2.1 nM; in experiment [3] it was 7.6 nM. Also, the “efficacy of SDF-1 displacement” value in [2] (radio-ligand displacement) was “full efficacy”. Moreover, the Ki in [2] (read-out: Ligand competition [125I]-SDF-1 Ki, 75 pM [125I]-CXCL12) was found to be 5.4 nM. Besides, in experiment [4], the concentration for a half-maximal effect (EC50) was 3.4 nM.

B2: MEHD7945A: two-in-one Mab with specificity for EGFR and Her3 (antibody, chains of the INN, looked up, V domains shown)
VH: EVQLVESGGGLVQPGGSLRLSCAASGFTLSGDWIHWVRQAPGKGLEWVGEISAAGGYTDYADSVKGRFTISADTSKNTAYLQMNSLRAEDTAVYYCARESRVSFEAAMDYWGQGTLVTVSS
VL: DIQMTQSPSSLSASVGDRVTITCRASQNIATDVAWYQQKPGKAPKLLIYSASFLYSGVPSRFSGSGSGTDFTLTISSLQPEDFATYYCQQSEPEPYTFGQGTKVEIK
B2: the Kd in experiment [5] is 1.9 nM; in [6], 0.39 nM.

B3: CD4#8: anti-CD4 Nanobody, SEQ ID NO: 25 (protein)
VHH: EVQLVESGGGSVQPGGSLTLSCGTSGRTFNVMGWFRQAPGKEREFVAAVRWSSTGIYYTQYADSVKSRFTISRDNAKNTVYLEMNSLKPEDTAVYYCAADTYNSNPARWDGYDFRGQGTQVTVSS
Consider B3, for which the “inhibition of gp120 - CD4 interaction” value in experiment [7] is listed as “inhibit the interaction with gp120”. Also, the “binding to isolated CD8+ T cells” value in experiment [8] is “No binding”. Further, the “binding to CD4+ gated and CD8+ gated T cells” value in experiment [9] is on record as “strong binding to the CD4+ gated population; also recorded: only a low signal was observed to the CD8+ population”.
